Legend:
[1] = molecular target: human FcγRIIb on CHOK1 cells overexpressing FcγRIIb (human) (UniProt P31994); assay: flow cytometry on CHOK1 cells overexpressing FcγRIIb; detection with anti-human kappa antibody
[2] = molecular target: human FcγRIIa (R131) on CHOK1 cells overexpressing FcγRIIa (R131) (human) (UniProt P12318); assay: flow cytometry on CHOK1 cells overexpressing FcγRIIa (R131); detection with anti-human kappa antibody
UniProt P12318, sequence (P12318 34-317 H167R): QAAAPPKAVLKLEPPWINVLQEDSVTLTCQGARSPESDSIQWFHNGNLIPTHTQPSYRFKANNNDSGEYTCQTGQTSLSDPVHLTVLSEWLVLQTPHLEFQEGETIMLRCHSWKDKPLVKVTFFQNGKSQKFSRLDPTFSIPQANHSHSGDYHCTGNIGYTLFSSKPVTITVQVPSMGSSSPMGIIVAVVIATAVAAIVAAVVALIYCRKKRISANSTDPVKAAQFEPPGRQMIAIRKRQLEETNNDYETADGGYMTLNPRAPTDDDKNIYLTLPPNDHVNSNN

UniProt P31994, sequence (P31994 43-310): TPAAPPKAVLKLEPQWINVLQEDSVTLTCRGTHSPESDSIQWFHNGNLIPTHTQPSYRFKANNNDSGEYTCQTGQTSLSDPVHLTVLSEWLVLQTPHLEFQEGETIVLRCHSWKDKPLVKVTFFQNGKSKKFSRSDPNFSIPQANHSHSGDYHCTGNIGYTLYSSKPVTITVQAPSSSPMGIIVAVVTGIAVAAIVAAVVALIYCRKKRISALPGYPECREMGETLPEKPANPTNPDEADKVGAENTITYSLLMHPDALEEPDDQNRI

Substance | Log EC50 [1] | Log EC50 [2]
anti-LAG3 SELF (from UniProt P01857 1-330) (antibody) | -0.0779 | 
anti-RSV AAA (from UniProt P01857 1-330) (antibody) | 4.42 | 3.9
